Substitutions are numbered along the chain they refer to. *1 amine or outer side, *2 acyl side, *3 side chain or, on linkers, in order; H or OH if unused. Where no end group is shown, it is not given here. Side-chain parts run from the residue outwards. [ ]: non-standard residue; d: D form. The star is where a group is joined. C18 diacid = O=C(O)CCCCCCCCCCCCCCCCC(=O)*; γGlu = O=C(O)[C@H](CCC(=O)[*:2])N[*:1]; AEEA = NCCOCCOCC(=O)O; Aib = CC(C)(N)C(=O)O
B1: dgc004 (peptide)
peptide: HXQGTFTSDYSKYLEERAAKEFIAWLEAGG
HELM: PEPTIDE1{H.[Aib].Q.G.T.F.T.S.D.Y.S.K.Y.L.E.E.R.A.A.K.E.F.I.A.W.L.E.A.G.G.[am]}|PEPTIDE2{[CCCCCCCCCCCCCCCC(=O)[*:2]].[gGlu]}$PEPTIDE1,PEPTIDE2,20:R3-2:R2$$$V2.0; N-terminus assumed
SMILES: CCCCCCCCCCCCCCCC(=O)N[C@@H](CCC(=O)NCCCC[C@H](NC(=O)[C@H](C)NC(=O)[C@H](C)NC(=O)[C@H](CCCNC(=N)N)NC(=O)[C@H](CCC(=O)O)NC(=O)[C@H](CCC(=O)O)NC(=O)[C@H](CC(C)C)NC(=O)[C@H](Cc1ccc(O)cc1)NC(=O)[C@H](CCCCN)NC(=O)[C@H](CO)NC(=O)[C@H](Cc1ccc(O)cc1)NC(=O)[C@H](CC(=O)O)NC(=O)[C@H](CO)NC(=O)[C@@H](NC(=O)[C@H](Cc1ccccc1)NC(=O)[C@@H](NC(=O)CNC(=O)[C@H](CCC(N)=O)NC(=O)C(C)(C)NC(=O)[C@@H](N)Cc1c[nH]cn1)[C@@H](C)O)[C@@H](C)O)C(=O)N[C@@H](CCC(=O)O)C(=O)N[C@@H](Cc1ccccc1)C(=O)N[C@H](C(=O)N[C@@H](C)C(=O)N[C@@H](Cc1c[nH]c2ccccc12)C(=O)N[C@@H](CC(C)C)C(=O)N[C@@H](CCC(=O)O)C(=O)N[C@@H](C)C(=O)NCC(=O)NCC(N)=O)[C@@H](C)CC)C(=O)O
B2: dgc005 (peptide)
peptide: B1 peptide
HELM: PEPTIDE1{H.[Aib].Q.G.T.F.T.S.D.Y.S.K.Y.L.E.E.R.A.A.K.E.F.I.A.W.L.E.A.G.G.[am]}|PEPTIDE2{[CCCCCCCCCCCCCCCC(=O)[*:2]].[gGlu].[gGlu]}$PEPTIDE1,PEPTIDE2,20:R3-3:R2$$$V2.0; N-terminus assumed
SMILES: CCCCCCCCCCCCCCCC(=O)N[C@@H](CCC(=O)N[C@@H](CCC(=O)NCCCC[C@H](NC(=O)[C@H](C)NC(=O)[C@H](C)NC(=O)[C@H](CCCNC(=N)N)NC(=O)[C@H](CCC(=O)O)NC(=O)[C@H](CCC(=O)O)NC(=O)[C@H](CC(C)C)NC(=O)[C@H](Cc1ccc(O)cc1)NC(=O)[C@H](CCCCN)NC(=O)[C@H](CO)NC(=O)[C@H](Cc1ccc(O)cc1)NC(=O)[C@H](CC(=O)O)NC(=O)[C@H](CO)NC(=O)[C@@H](NC(=O)[C@H](Cc1ccccc1)NC(=O)[C@@H](NC(=O)CNC(=O)[C@H](CCC(N)=O)NC(=O)C(C)(C)NC(=O)[C@@H](N)Cc1c[nH]cn1)[C@@H](C)O)[C@@H](C)O)C(=O)N[C@@H](CCC(=O)O)C(=O)N[C@@H](Cc1ccccc1)C(=O)N[C@H](C(=O)N[C@@H](C)C(=O)N[C@@H](Cc1c[nH]c2ccccc12)C(=O)N[C@@H](CC(C)C)C(=O)N[C@@H](CCC(=O)O)C(=O)N[C@@H](C)C(=O)NCC(=O)NCC(N)=O)[C@@H](C)CC)C(=O)O)C(=O)O
B3: dgc006 (peptide)
peptide: H[Aib]QGTFTSDYSKYLEERAAKEFIAWLEAGG-NH2
modifications: not fully specified (residue 20)
B4: dgc007 (peptide)
peptide: B1 peptide with E15D, A28S
HELM: PEPTIDE1{H.[Aib].Q.G.T.F.T.S.D.Y.S.K.Y.L.D.E.R.A.A.K.E.F.I.A.W.L.E.S.G.G.[am]}|PEPTIDE2{[CCCCCCCCCCCCCCCC(=O)[*:2]].[gGlu]}$PEPTIDE1,PEPTIDE2,20:R3-2:R2$$$V2.0; N-terminus assumed
SMILES: CCCCCCCCCCCCCCCC(=O)N[C@@H](CCC(=O)NCCCC[C@H](NC(=O)[C@H](C)NC(=O)[C@H](C)NC(=O)[C@H](CCCNC(=N)N)NC(=O)[C@H](CCC(=O)O)NC(=O)[C@H](CC(=O)O)NC(=O)[C@H](CC(C)C)NC(=O)[C@H](Cc1ccc(O)cc1)NC(=O)[C@H](CCCCN)NC(=O)[C@H](CO)NC(=O)[C@H](Cc1ccc(O)cc1)NC(=O)[C@H](CC(=O)O)NC(=O)[C@H](CO)NC(=O)[C@@H](NC(=O)[C@H](Cc1ccccc1)NC(=O)[C@@H](NC(=O)CNC(=O)[C@H](CCC(N)=O)NC(=O)C(C)(C)NC(=O)[C@@H](N)Cc1c[nH]cn1)[C@@H](C)O)[C@@H](C)O)C(=O)N[C@@H](CCC(=O)O)C(=O)N[C@@H](Cc1ccccc1)C(=O)N[C@H](C(=O)N[C@@H](C)C(=O)N[C@@H](Cc1c[nH]c2ccccc12)C(=O)N[C@@H](CC(C)C)C(=O)N[C@@H](CCC(=O)O)C(=O)N[C@@H](CO)C(=O)NCC(=O)NCC(N)=O)[C@@H](C)CC)C(=O)O
B5: dgc008 (peptide)
peptide: B1 peptide with A28S
HELM: PEPTIDE1{H.[Aib].Q.G.T.F.T.S.D.Y.S.K.Y.L.E.E.R.A.A.K.E.F.I.A.W.L.E.S.G.G.[am]}|PEPTIDE2{[CCCCCCCCCCCCCCCC(=O)[*:2]].[gGlu]}$PEPTIDE1,PEPTIDE2,20:R3-2:R2$$$V2.0; N-terminus assumed
SMILES: CCCCCCCCCCCCCCCC(=O)N[C@@H](CCC(=O)NCCCC[C@H](NC(=O)[C@H](C)NC(=O)[C@H](C)NC(=O)[C@H](CCCNC(=N)N)NC(=O)[C@H](CCC(=O)O)NC(=O)[C@H](CCC(=O)O)NC(=O)[C@H](CC(C)C)NC(=O)[C@H](Cc1ccc(O)cc1)NC(=O)[C@H](CCCCN)NC(=O)[C@H](CO)NC(=O)[C@H](Cc1ccc(O)cc1)NC(=O)[C@H](CC(=O)O)NC(=O)[C@H](CO)NC(=O)[C@@H](NC(=O)[C@H](Cc1ccccc1)NC(=O)[C@@H](NC(=O)CNC(=O)[C@H](CCC(N)=O)NC(=O)C(C)(C)NC(=O)[C@@H](N)Cc1c[nH]cn1)[C@@H](C)O)[C@@H](C)O)C(=O)N[C@@H](CCC(=O)O)C(=O)N[C@@H](Cc1ccccc1)C(=O)N[C@H](C(=O)N[C@@H](C)C(=O)N[C@@H](Cc1c[nH]c2ccccc12)C(=O)N[C@@H](CC(C)C)C(=O)N[C@@H](CCC(=O)O)C(=O)N[C@@H](CO)C(=O)NCC(=O)NCC(N)=O)[C@@H](C)CC)C(=O)O
B6: dgc009 (peptide)
peptide: H[Aib]QGTFTSDYSKYLEERAAKEFIAWLESGG-NH2
modifications: not fully specified (residue 20); printed as HAibQGTFTSDYSKYLEERAAK*EFIAWLESGG
B7: dgc010 (peptide)
peptide: B1 peptide with A28S
HELM: PEPTIDE1{H.[Aib].Q.G.T.F.T.S.D.Y.S.K.Y.L.E.E.R.A.A.K.E.F.I.A.W.L.E.S.G.G.[am]}|PEPTIDE2{[CCCCCCCCCCCCCCCC(=O)[*:2]].[gGlu].[gGlu]}$PEPTIDE1,PEPTIDE2,20:R3-3:R2$$$V2.0; N-terminus assumed
SMILES: CCCCCCCCCCCCCCCC(=O)N[C@@H](CCC(=O)N[C@@H](CCC(=O)NCCCC[C@H](NC(=O)[C@H](C)NC(=O)[C@H](C)NC(=O)[C@H](CCCNC(=N)N)NC(=O)[C@H](CCC(=O)O)NC(=O)[C@H](CCC(=O)O)NC(=O)[C@H](CC(C)C)NC(=O)[C@H](Cc1ccc(O)cc1)NC(=O)[C@H](CCCCN)NC(=O)[C@H](CO)NC(=O)[C@H](Cc1ccc(O)cc1)NC(=O)[C@H](CC(=O)O)NC(=O)[C@H](CO)NC(=O)[C@@H](NC(=O)[C@H](Cc1ccccc1)NC(=O)[C@@H](NC(=O)CNC(=O)[C@H](CCC(N)=O)NC(=O)C(C)(C)NC(=O)[C@@H](N)Cc1c[nH]cn1)[C@@H](C)O)[C@@H](C)O)C(=O)N[C@@H](CCC(=O)O)C(=O)N[C@@H](Cc1ccccc1)C(=O)N[C@H](C(=O)N[C@@H](C)C(=O)N[C@@H](Cc1c[nH]c2ccccc12)C(=O)N[C@@H](CC(C)C)C(=O)N[C@@H](CCC(=O)O)C(=O)N[C@@H](CO)C(=O)NCC(=O)NCC(N)=O)[C@@H](C)CC)C(=O)O)C(=O)O
B8: dgc011 (peptide)
peptide: H[Aib]QGTFTSDYSKYLEERAAKEFIAWLEAGG-NH2
modifications: not fully specified (residue 20)
B9: dgc012 (peptide)
peptide: H[dS]QGTFTSDYSKYLEERAAK([AEEA-AEEA-γGlu-C18 diacid])EFVAWLEGG-NH2
modifications: N-terminus assumed
SMILES: CC(C)C[C@H](NC(=O)[C@H](Cc1c[nH]c2ccccc12)NC(=O)[C@H](C)NC(=O)[C@@H](NC(=O)[C@H](Cc1ccccc1)NC(=O)[C@H](CCC(=O)O)NC(=O)[C@H](CCCCNC(=O)COCCOCCNC(=O)COCCOCCNC(=O)CC[C@H](NC(=O)CCCCCCCCCCCCCCCCC(=O)O)C(=O)O)NC(=O)[C@H](C)NC(=O)[C@H](C)NC(=O)[C@H](CCCNC(=N)N)NC(=O)[C@H](CCC(=O)O)NC(=O)[C@H](CCC(=O)O)NC(=O)[C@H](CC(C)C)NC(=O)[C@H](Cc1ccc(O)cc1)NC(=O)[C@H](CCCCN)NC(=O)[C@H](CO)NC(=O)[C@H](Cc1ccc(O)cc1)NC(=O)[C@H](CC(=O)O)NC(=O)[C@H](CO)NC(=O)[C@@H](NC(=O)[C@H](Cc1ccccc1)NC(=O)[C@@H](NC(=O)CNC(=O)[C@H](CCC(N)=O)NC(=O)[C@@H](CO)NC(=O)[C@@H](N)Cc1c[nH]cn1)[C@@H](C)O)[C@@H](C)O)C(C)C)C(=O)N[C@@H](CCC(=O)O)C(=O)NCC(=O)NCC(N)=O

Each binder was assayed against GLP-1 receptor (GLP-1R), stably expressed on HEK293 cells (assay: cell-based or functional assay).

In order of rising “GLP-1R (nM EC50), receptor-mediated cAMP production in HEK293 cells” value:
1. B9  0.044 nM
2. B6  0.092 nM
3. B1  0.113 nM
4. B4  0.28 nM
5. B3  0.472 nM
6. B2  0.484 nM
7. B7  0.537 nM
8. B5  0.742 nM
9. B8  0.955 nM

The binders below were run against Glucagon receptor (GCGR), stably expressed on HEK293 cells (assay: cell-based or functional assay).

In order of falling “GCGR (nM EC50), receptor-mediated cAMP production in HEK293 cells” value:
1. B6  8.22 nM
2. B3  6.41 nM
3. B1  5.84 nM
4. B8  4.13 nM
5. B9  2.17 nM
6. B5  2.03 nM
7. B2  1.16 nM
8. B4  0.971 nM
9. B7  0.614 nM
